# In US20020147306A1, “Peptides that modulate the interaction of B class ephrins and PDZ domains” (priority 1998, published 2002):
# What was measured:
# Test in all cases: fluorescence polarization, 25 nM fluorescein-labelled peptide, GST fusion titrated, 22 C
# [1] = biological target: fluorescein-labelled NIYpYKV peptide
# [2] = biological target: fluorescein-labelled NIpYYKV peptide
# [3] = biological target: fluorescein-labelled NIYYKV peptide
# [4] = biological target: fluorescein-labelled NIpYpYKV peptide
# Chain of GST-FAP-1 PDZ5 fusion protein (P08515 whole entry, the tested form may be a part): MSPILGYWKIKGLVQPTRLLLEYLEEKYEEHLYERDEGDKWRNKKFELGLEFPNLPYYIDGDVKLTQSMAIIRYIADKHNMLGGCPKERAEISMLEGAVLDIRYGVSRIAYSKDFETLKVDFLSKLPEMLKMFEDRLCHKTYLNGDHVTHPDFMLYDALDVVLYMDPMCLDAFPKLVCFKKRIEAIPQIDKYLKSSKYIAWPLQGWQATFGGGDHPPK
Substance,Kd [1] [µM],Kd [2] [µM],Kd [3] [µM],Kd [4] [µM]
GST-FAP-1 PDZ5 fusion protein (from UniProt P08515 1-218),15.4,6.8,9.9,8.4
GST-FAP-1 PDZ3 fusion protein (from UniProt Q12923 1368-1452),,,65,
